Measurements from publication PMC11663931.

Key:
[1] = target: human recombinant RetGC1 (retinal membrane guanylyl cyclase 1) (human) (UniProt Q02846)
[2] = target: human recombinant RetGC1 (retinal membrane guanylyl cyclase 1) (human) (UniProt Q02846); remark: listed apart in the source

Sequence of UniProt Q02846 (Q02846 52-1103): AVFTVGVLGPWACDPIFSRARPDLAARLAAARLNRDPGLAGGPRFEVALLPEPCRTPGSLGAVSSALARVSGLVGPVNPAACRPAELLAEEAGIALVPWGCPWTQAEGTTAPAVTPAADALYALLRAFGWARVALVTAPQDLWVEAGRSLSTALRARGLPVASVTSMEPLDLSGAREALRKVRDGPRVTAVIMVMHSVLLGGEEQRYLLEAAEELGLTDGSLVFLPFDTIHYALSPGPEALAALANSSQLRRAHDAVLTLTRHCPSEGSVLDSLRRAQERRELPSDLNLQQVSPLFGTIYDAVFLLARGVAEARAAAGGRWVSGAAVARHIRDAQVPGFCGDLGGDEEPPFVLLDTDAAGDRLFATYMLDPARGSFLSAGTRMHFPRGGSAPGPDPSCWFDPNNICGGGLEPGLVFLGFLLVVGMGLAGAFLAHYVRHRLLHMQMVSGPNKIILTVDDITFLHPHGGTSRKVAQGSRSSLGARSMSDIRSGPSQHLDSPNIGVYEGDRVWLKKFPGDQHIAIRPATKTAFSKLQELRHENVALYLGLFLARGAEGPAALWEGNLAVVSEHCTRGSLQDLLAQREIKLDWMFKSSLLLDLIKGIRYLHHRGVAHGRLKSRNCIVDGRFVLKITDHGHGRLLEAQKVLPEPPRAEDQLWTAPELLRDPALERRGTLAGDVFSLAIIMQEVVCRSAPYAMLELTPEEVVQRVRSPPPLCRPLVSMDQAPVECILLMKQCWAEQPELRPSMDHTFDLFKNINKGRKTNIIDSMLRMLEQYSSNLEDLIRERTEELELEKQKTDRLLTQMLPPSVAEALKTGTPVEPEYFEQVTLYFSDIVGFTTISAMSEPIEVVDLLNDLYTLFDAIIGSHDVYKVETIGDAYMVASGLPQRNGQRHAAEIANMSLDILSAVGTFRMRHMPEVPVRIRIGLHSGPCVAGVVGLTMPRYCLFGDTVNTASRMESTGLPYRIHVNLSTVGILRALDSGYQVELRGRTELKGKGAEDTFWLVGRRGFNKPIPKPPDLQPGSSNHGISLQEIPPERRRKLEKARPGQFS

B1: purified myristoylated bovine GCAP1 (guanylyl cyclase activating protein 1) (natural protein)
chain: MGNIMDGKSVEELSSTECHQWYKKFMTECPSGQLTLYEFRQFFGLKNLSPWASQYVEQMFETFDFNKDGYIDFMEYVAALSLVLKGKVEQKLRWYFKLYDVDGNGCIDRDELLTIIRAIRAINPCSDSTMTAEEFTDTVFSKIDVNGDGELSLEEFMEGVQKDQMLLDTLTRSLDLTRIVRRLQNGEQDEEGASGRETEAAEADG
modifications: N-myristoylated
K1/2 of GCAP1 for activating the guanylyl cyclase activity of recombinant RetGC1 in HEK293 membranes (hyperbolic fit, 0-10 μM GCAP1), with 50 mM NaHCO3 [1]: 2.9 µM
K1/2 of GCAP1 for activating the guanylyl cyclase activity of recombinant RetGC1 in HEK293 membranes (hyperbolic fit, 0-10 μM GCAP1), without NaHCO3 [1]: 1.47 µM
K1/2 of GCAP1 for activating the guanylyl cyclase activity of recombinant RetGC1, with additional 50 mM NaCl instead of bicarbonate (pilot measurement, not shown) [2]: 2 µM
